Laboratory results published in the supplement of paper PMC9170038.

What was measured:
MS2 coat protein [1] = assay: apparent KD of MS2 coat protein; designed switch direction (-1 OFF switch, 1 ON switch): 1; higher = weaker reporter binding; details: Eterna round: R98
Experimental: (§1)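 RNA-MaP: designed FMN/MS2 RNA switches (84 nt design region) are transcribed on-chip within common flanks and titrated with SNAP-549-labelled MS2 coat protein (about 1-3000 nM) in 100 mM Tris pH 7.5, 80 mM KCl, 4 mM MgCl2, without or with 200 uM FMN. Median apparent KD per design; activation ratio = KD,OFF / KD,ON.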

MS2 coat protein [2] = assay: apparent KD of MS2 coat protein; higher = weaker reporter binding; details: Eterna round: R101
Experimental: as §1

Sequence	apparent KD of MS2 coat protein (MS2 coat protein [1]; input ligand: FMN 200 uM) [nM]	apparent KD of MS2 coat protein (MS2 coat protein [1]; input ligand: none) [nM]	apparent KD of MS2 coat protein (MS2 coat protein [2]; input ligand: FMN 200 uM) [nM]	apparent KD of MS2 coat protein (MS2 coat protein [2]; input ligand: none) [nM]
CAUGUCCACACAGGAUAUGCUGGACUUUGUCCAGCAGAAGGGUGAACAUGAGGAUCACCCAUGUAAAGGACAUGUAUAUUUAAU [Denovo 16]	93.3	715	–	–
AAGCAAACAUGAGGAUCACCCAUGUAACUGCUUUUGGCGACACAGGAUAUACAGCGACAUUGGCGGUAGAAGGGUGAUUGAAGU [Araisleen]	51.1	22.2	–	–
AAAGAUUUUUAAGGAUAUGACUCCGAAACGGAGUCAGAAGGUGAGGAUCACCCACCUAGCUCAGCGUCGAAAGACGCUGAGCAA [#SharedSequence ExNG1 - 24] (puzzle (switch architecture): Exclusion NG 1)	–	–	11	8.75
GUAGCAGCGGCGCCCUCGUAGACAUGAGGAUCACCCAUGUCGCAGGAUAUCAGAAGCGGAGCUGCUGAGAAGGGCGACAUAAGG [Quorus] (puzzle (switch architecture): Exclusion NG 3)	–	–	13.8	7.25
CCGACGACUUAGAAGGCACUCGCAUAAUGCGAGUGAGGAUAUGAGGAUCACCCAUAUCAACGUCGGAGUCACCGAAACGGUGAC [#SharedSequence - IEx NG 4-2] (puzzle (switch architecture): Inverted Exclusion NG 1)	–	–	7.98	8.45
AGUGUCAUCGAGAAGGCCUCAACAUGAGGAUCACCCAUUUUGAAAAGUGGGAGGAUAUCGAUGAUACAGCUACGUUUCGUAGCA [salish99_InSLSSNG1_023 #HINGE] (puzzle (switch architecture): Inverted Small Loop Same State NG 1)	–	–	132	107
GGAGAUACAUGAGGAUCACCCAUGUAGGAUAUCGGGCCCGUGCCCGGCGAAAGCCGGGCACGGGCCGAGAAGGGCGUACACACC [#LOL-3] (puzzle (switch architecture): Small Loop Exclusion NG 3)	–	–	7.66	8.78
GUAGCAUACGGAGGAUAUUCAUACCGGAAACGGACAUGAGGAUCACCCAUGUGGCGAAAGCCUUGGGAGAAGGCCGUAUGCUAC [#DoubleMagnetSystem - Mat - Same State NG 2 - JL Mod - D 61] (puzzle (switch architecture): Same State NG 2)	–	–	8.06	187
AUAUGAUUAAGAGGAUAUAUACAACAUGAGGAUCACCCAUGUACCCAUGUAGUAGAAGGUUUAUUUUUAUAUAAUAAUAUAAUU [AstrosLoopssng1#12] (puzzle (switch architecture): Small Loop Same State NG 1)	–	–	61.4	82.9
AGUCGGAGCAGAGGAUAUUACAUGAGGAUCACCCAUGUAUGAACCAAUAGCUGGAAACAGCAAUGUAAGAAGGCUGCUCCGACA (puzzle (switch architecture): Exclusion NG 2)	–	–	169	12.9
GUACAUGAGGAUCACCCAUGUCACAUAACGUCCGAGGAUACCAGAAGGGCAGACGUUACGACGGUGCAGGAUAUGGGCUCCUAA [Beceanbe] (puzzle (switch architecture): Inverted Same State NG 3)	–	–	37.2	56.6
CUGGUUGUCGUAGGAUAUGUAGGAUAUUCCUACAUGAGGAUCACCCAUGUUCGCAUGGAAGAAGGACAGAAGGACGAUGACCAC [salish99_SSNG2_013 #endbits investigation] (puzzle (switch architecture): Same State NG 2)	–	–	9.19	1050
CGCUAUUACAUGAGGAUCACCCAUGUAUACAUGGGAUUGUCGUAGGAUAUGCAGAAGAUUAAAGUGCAGAAGGACGGUAUAGCG [JR #DistanceClose #Static #StaticP #NP SSNG3 Sub068] (puzzle (switch architecture): Same State NG 3)	–	–	1.03	3.46
